# Data taken from the supplement of paper PMC9170038.
# Test system: MS2 coat protein
# Experiment: apparent KD of MS2 coat protein; designed switch direction (-1 OFF switch, 1 ON switch): -1; higher = weaker reporter binding
# Method in brief: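 SNAP-549-labelled MS2 coat protein was titrated, doubling from 0.7 or 1.5 nM to 3 µM, over designed RNA switches transcribed on Illumina chips by stalled E. coli RNA polymerase. Runs were done without input, with 200 uM small-molecule ligand, or with an oligonucleotide input. Apparent KD is the per-design median over clusters of curve-fitted normalised fluorescence.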
# [1] = input ligand: microRNA oligo, concentration not stated
# [2] = Eterna round: R95, input ligand: FMN 200 uM
# [3] = Eterna round: R95, input ligand: microRNA oligo, concentration not stated
# [4] = Eterna round: R95, input ligand: none
Sequence,apparent KD of MS2 coat protein (input ligand: FMN 200 uM),apparent KD of MS2 coat protein [1],apparent KD of MS2 coat protein (input ligand: none),apparent KD of MS2 coat protein [2],apparent KD of MS2 coat protein [3],apparent KD of MS2 coat protein [4]
"GCGGACUUGAACGUGAGUUCAGAGACAUGAGGAUCACCCAUGUAGGAUAUCGAUUCGAAACGAAUCGAGAAGGGCAUGGUCCGC [JL denovo 14] (Eterna round: R96, puzzle: Exclusion NG 3)",0.0374 µM,0.0213 µM,0.0288 µM,–,–,–
"GCGUGGCGUAAGGAUAUCCAUACGGUAUAACCGGGAGAAGGUACGACAUGAGGAUCACCCAUGUGGCCUGGAAA [Sorimaat] (Eterna round: R97, puzzle: Exclusion 6)",0.0644 µM,–,0.0222 µM,–,–,–
"GCGUUCUGAGGAUAUACAUGAGGAUCACCCAUGUUGAGAAUUAGGUAUAAGGGAUUUUGUAGAAGGCAGAGUGC [JR_Ex3_Sub072] (Eterna round: R97, puzzle: Exclusion 3)",0.228 µM,–,0.0599 µM,–,–,–
"GCUAGGAGUGUGAGGAUAUGCUGUUCCUUGGAACAGCAGAAGGCACAUGAGGAUCACCCAUGUGAAGACCUAGC [Mat - Exclusion 4 - JL Mod - D3] (Eterna round: R97, puzzle: Brourd's mod of Exclusion 4)",0.149 µM,–,0.0245 µM,–,–,–
"GCUCGCGGGCAAGGAUAUCCUACGCUGUUCUGGUUCGUGUCUGUUACAUGAGGAUCACCCAUGUGGGAGAAGGUGCACCAGGGC [Design 48] (Eterna round: R96, puzzle: Exclusion NG 2)",0.0137 µM,0.00998 µM,0.0147 µM,–,–,–
GCUGCAUCAGGAUAUAUACGGUAUCACAUGAGGAUCACCCAUGUUCGUGUGGAACUGAACGUAGAAGGGAUUAGAU [Aramaa] (puzzle: Exclusion 5),–,–,–,0.0311 µM,0.0283 µM,0.0245 µM
GCUGCGCGAGGAUAUGCGGUUUGUGCUUUGGCCCGUGGCGUACAUGAGGAUCACCCAUGUAGAAGGCGUGUGGG [Apr-15 SS2-53] (puzzle: Exclusion 2),–,–,–,–,0.0181 µM,–
"GCUGGUCGAGGAUAUACAUGAGGAUCACCCAUGUAGAUCAACCAGCGAUAGCUGGAAUGUAGAAGGUGACCAGC [E3/5-B1] (Eterna round: R97, puzzle: Exclusion 3)",0.0219 µM,–,0.0159 µM,–,–,–
"GCUGGUCGAGGAUAUACAUGAGGAUCACCCAUGUGAUUAGCAGUCCUCGGACUGCAAUGUAGAAGGCGACCAGC [E3/2-A1] (Eterna round: R97, puzzle: Exclusion 3)",0.62 µM,–,0.439 µM,–,–,–
"GCUUAUAGAGGAUAUACAGAUUAUUACAUGAGGAUCACCCAUGUUCUUCAAUGUAUAUAUGUAGAAGGCUAAGGAG [Mat - Exclusion 5 - JL Mod - D11] (Eterna round: R97, puzzle: Exclusion 5)",0.175 µM,–,0.0632 µM,–,–,–
"GCUUGUAGAGGAUAUACGAGGGCCCGAGCGGAUAACACCGCACAUGAGGAUCACCCAUGUAGAAGGCUACUAUU [JL-ex2-4.18 ViennaUCT mod] (Eterna round: R97, puzzle: Exclusion 2)",0.096 µM,–,0.105 µM,–,–,–
"GCUUGUGCCCUAGGAUAUCGCCCAGCCAAUGGAUGAGAAGGAGGCGGGUGAAACAUGAGGAUCACCCAUGUAAACGCACAGGCG [Erdiusbi] (Eterna round: R96, puzzle: Exclusion NG 1)",0.189 µM,0.018 µM,0.0219 µM,–,–,–
"GGAAAAAUAUAGGAUAUGGGAGGGAGGACCGAACCAGAAGGAUAGACAUGAGGAUCACCCAUGUAAAGAUCCUC [AK-MS2ROC-r4-exclusion6-6] (Eterna round: R97, puzzle: Exclusion 6)",0.377 µM,–,0.204 µM,–,–,–
GGAAAACAUGAGGAUCACCCAUGUGAGGAUAUGCGUACGUUGUCCGUAGGCGACGUGCGCAGAAGGCGCAAGAG [Mat - Mod of JL D89] (puzzle: Exclusion 1),–,–,–,0.0574 µM,0.0485 µM,0.0581 µM
"GGAACGCGAGGAUAUACAUAGCCGGAAACGGCAAUAGCCUCACAUGAGGAUCACCCAUGUAGAAGGCGCGGAGA [AK-MS2ROC-r4-exclusion2-24] (Eterna round: R97, puzzle: Exclusion 2)",0.119 µM,–,0.0172 µM,–,–,–
"GGAAGAAAGCGAGGAUAUCGAUAAGAAGAAGAAGAUAAGGUGACAUGAGGAUCACCCAUGUAAUACGAGAAGGCGCGACCUGCG [i'd better go back to my homework] (Eterna round: R96, puzzle: Exclusion NG 2)",0.215 µM,0.147 µM,0.197 µM,–,–,–
"GGACAUAAAGUCAGGAUAUUAAUGCGAACAAGCGAUGAGAAGGGACAUGAGGAUCACCCAUGUGAUUCUCAUCA [Edvebe] (Eterna round: R97, puzzle: Brourd's mod of Exclusion 4)",0.0176 µM,–,0.0165 µM,–,–,–
GGAGAGUCAGGAUAUCGAAGGUAGUGGAGAGGAGUGUGGUACGAGAAGGGACAUGAGGAUCACCCAUGUAGGUG [JR_Exclusion4)Sub010] (puzzle: Exclusion 4),–,–,–,0.306 µM,0.423 µM,0.478 µM
"GGAGGAAGAGAGGAUAUGGAGGAGAGGAGAAGACCAGAAGGUUCAACAUGAGGAUCACCCAUGUAUGAUCCUCA [AK-MS2ROC-r4-exclusion6-1.1] (Eterna round: R97, puzzle: Exclusion 6)",0.789 µM,–,0.694 µM,–,–,–
"GGAGGACGAGCAGGAUAUUUUUACAUGAGGAUCACCCAUGUGUAAUCAGGGUAAUCCUCCGCCGAAAAGAAGGGUUCGGAAGAA [Mat - Exclusion NG 2 - Mod of JL - D83] (Eterna round: R96, puzzle: Exclusion NG 2)",2.75 µM,0.0169 µM,0.0676 µM,–,–,–
"GGAUAAAACUGAGGAUAUGCGUAUAGAUAGAGAGCAGAAGGCAGACAUGAGGAUCACCCAUGUGAGUUCUCGAUAAGAAACACG [Prohibition 58 - Jieux - Exclusion NG 1] (Eterna round: R96, puzzle: Exclusion NG 1)",0.118 µM,0.0361 µM,0.0352 µM,–,–,–
"GGAUAGUGAGGAUAUACCCAGAUUGAUGGACACGUCAGCGGGUAGAAGGCACAUGAGGAUCACCCAUGUGGCCU [Eternabot (L1) Solution 22] (Eterna round: R97, puzzle: Exclusion 4)",0.0184 µM,–,0.0141 µM,–,–,–
GGAUCGAAUGUGAGGAUAUACCACUGGAUACAGUGGUAGAAGGCACAUGAGGAUCACCCAUGUCUCUACGAUCC [Fiskers BMX 4 - 43] (puzzle: Brourd's mod of Exclusion 4),–,–,–,–,0.021 µM,–
"GGAUCGAAUGUGAGGAUAUGCAGGUCCUUGGAUCUGCAGAAGGCACAUGAGGAUCACCCAUGUGAUACCGAUCC [Mat - Exclusion 4 - Eli Mod - D42] (Eterna round: R97, puzzle: Brourd's mod of Exclusion 4)",0.148 µM,–,0.455 µM,–,–,–
"GGAUCGAGUGUGAGGAUAUACCUAUGGAAACAUAGGUAGAAGGCACAUGAGGAUCACCCAUGUGUUCCCGGUCC [Mat - Exclusion 4 - Eli Mod - D16] (Eterna round: R97, puzzle: Brourd's mod of Exclusion 4)",0.485 µM,–,0.0508 µM,–,–,–
